# Test results reported in patent publication US20240165282A1, “CONFORMATIONAL CONSTRAINED SOMATOSTATIN RECEPTOR 3 PEPTIDE LIGANDS AND THEIR CONJUGATES AND USES THEREOF” (STARGET PHARMA LTD., priority 2021, published 2024).
# *1 amine or outer side, *2 acyl side, *3 side chain or, on linkers, in order; H or OH if unused. Bridges are numbered along the chain shown (N, C = ends). [ ]: non-standard residue; d: D form. The star is where a group is joined. DOTA = O=C(O)CN1CCN(CC(=O)O)CCN(CC(=O)*)CCN(CC(=O)O)CC1; N(2-mercaptoethyl)Gly = O=C(CN(CCS[*:3])[*:1])[*:2]; Orn = NCCC[C@H](N)C(=O)O; GABA = NCCCC(=O)O
# Assays:
# Test in all cases: Radioligand binding, displacement of 125I-Tyr11-SRIF-14
# hSSTR-4 = target: T1, hSSTR-4 (Homo sapiens, UniProt P31391); settings: hSSTR-4
# T1 construct: host or cells: Chem-1 (Rat ChemiSCREEN) cells, membrane preparation
# T1 sequence (P31391 whole entry): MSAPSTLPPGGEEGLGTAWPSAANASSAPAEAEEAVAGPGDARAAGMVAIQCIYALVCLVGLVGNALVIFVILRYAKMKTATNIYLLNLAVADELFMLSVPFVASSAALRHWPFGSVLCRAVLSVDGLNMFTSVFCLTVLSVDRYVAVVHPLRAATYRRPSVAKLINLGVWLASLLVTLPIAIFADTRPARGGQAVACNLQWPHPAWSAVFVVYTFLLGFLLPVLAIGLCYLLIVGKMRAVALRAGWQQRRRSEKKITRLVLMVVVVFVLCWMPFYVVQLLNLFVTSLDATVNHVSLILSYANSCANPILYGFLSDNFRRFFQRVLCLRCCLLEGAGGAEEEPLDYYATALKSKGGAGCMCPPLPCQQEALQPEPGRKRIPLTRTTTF
# Excerpt: (§1) The binding to human cloned receptors SSTR-1, or SSTR-2 or SSTR-3 evaluated in stable and selective transfected CHO (Chinese Hamster Ovary) cells and binding to STSR-4 and SSTR-5 in stable and selective transfected Chem-1 (Rat ChemiSCREEN) cells. […] The binding reactions were filtered, the filters were washed, and the bound radioactivity was counted using a gamma counter.
# (§2) The following table depicts the conditions of binding assay to each of the somatostatin receptors used for the evaluations of binding affinities of the tested peptides. All assays were performed by quantitation method of radioligand binding under 25° C. The vehicle was 1% DMSO, the incubation buffer was 25 mM HEPES, pH 7.4, 5 mM MgCl2, 1 mM CaCl2, 0.1% BSA. […] The significance criteria were >50% of max inhibition. […] This specific binding data used for calculation of Bmax values which is the concentration of each of the expressed cloned receptor in its transfected cell system.
# (§3) The Results of IC50 values were determined by a non-linear, least squares regression analysis using MathIQ™ (ID Business Solutions Ltd., UK). […] The Hill coefficient (nH), defining the slope of the competitive binding curve, was calculated using MathIQ™.
# SSTR5 = SSTR5 (Homo sapiens, UniProt P35346); parameters: host or cells: Chem-1 (Rat ChemiSCREEN) cells, membrane preparation; settings: hSSTR-5
# SSTR5, sequence (P35346 whole entry): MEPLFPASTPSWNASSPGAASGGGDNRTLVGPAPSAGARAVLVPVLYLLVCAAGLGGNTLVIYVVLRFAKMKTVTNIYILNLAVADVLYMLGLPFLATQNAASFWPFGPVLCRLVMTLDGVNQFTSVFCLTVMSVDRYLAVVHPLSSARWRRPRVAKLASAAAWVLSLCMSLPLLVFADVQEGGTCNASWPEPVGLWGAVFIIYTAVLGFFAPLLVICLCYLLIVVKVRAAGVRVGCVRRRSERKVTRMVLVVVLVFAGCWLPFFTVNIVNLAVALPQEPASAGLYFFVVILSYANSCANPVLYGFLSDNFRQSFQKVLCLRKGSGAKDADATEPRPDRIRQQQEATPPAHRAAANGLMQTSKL
# Excerpt: as §1, §2, §3
# SSTR1 = SSTR1 (Homo sapiens, UniProt P30872); parameters: host or cells: CHO (Chinese Hamster Ovary) cells, membrane preparation; settings: hSSTR-1
# SSTR1, sequence (P30872 whole entry): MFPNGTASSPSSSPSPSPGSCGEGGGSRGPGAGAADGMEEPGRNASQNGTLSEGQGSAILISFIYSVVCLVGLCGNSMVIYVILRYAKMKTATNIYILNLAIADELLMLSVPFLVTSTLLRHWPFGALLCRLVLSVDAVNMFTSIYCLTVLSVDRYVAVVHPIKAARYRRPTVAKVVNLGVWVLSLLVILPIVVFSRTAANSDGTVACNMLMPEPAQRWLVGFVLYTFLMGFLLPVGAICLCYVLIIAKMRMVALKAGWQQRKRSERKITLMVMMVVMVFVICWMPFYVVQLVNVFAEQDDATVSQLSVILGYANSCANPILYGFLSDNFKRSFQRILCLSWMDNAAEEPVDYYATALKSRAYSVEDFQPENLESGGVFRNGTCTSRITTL
# Excerpt: as §1, §2, §3
# SSTR3 = SSTR3 (Homo sapiens, UniProt P32745); parameters: host or cells: CHO (Chinese Hamster Ovary) cells, membrane preparation; settings: for % displacement of [^125I] Tyr^11-SRIF-14: hSSTR-3; for affinity and selectivity to SSTR3 (in words): binding data
# SSTR3, sequence (P32745 whole entry): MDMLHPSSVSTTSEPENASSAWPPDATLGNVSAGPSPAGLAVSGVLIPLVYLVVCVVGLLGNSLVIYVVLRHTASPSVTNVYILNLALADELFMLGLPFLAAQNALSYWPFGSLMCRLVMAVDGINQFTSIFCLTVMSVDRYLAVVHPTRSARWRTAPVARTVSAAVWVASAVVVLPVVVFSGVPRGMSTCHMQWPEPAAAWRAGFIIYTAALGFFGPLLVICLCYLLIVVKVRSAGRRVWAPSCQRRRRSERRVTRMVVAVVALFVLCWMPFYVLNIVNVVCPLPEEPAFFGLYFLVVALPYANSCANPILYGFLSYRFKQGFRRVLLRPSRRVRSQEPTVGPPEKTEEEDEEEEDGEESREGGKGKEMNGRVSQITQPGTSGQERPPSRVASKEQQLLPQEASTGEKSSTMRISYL
# Excerpt: as §1, §2, §3
# SSTR2 = SSTR2 (Homo sapiens, UniProt P30874); parameters: host or cells: CHO (Chinese Hamster Ovary) cells, membrane preparation; settings: hSSTR-2
# SSTR2, sequence (P30874 whole entry): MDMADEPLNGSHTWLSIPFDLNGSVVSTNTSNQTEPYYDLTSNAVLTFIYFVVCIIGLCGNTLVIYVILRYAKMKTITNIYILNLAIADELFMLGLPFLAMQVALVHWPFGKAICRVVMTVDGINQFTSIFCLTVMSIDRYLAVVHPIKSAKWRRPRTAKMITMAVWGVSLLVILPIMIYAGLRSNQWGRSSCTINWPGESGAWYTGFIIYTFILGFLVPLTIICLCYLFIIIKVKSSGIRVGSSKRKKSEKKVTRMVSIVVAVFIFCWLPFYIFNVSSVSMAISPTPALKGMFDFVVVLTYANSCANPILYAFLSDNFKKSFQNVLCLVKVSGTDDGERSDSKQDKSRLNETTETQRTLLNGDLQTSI
# Excerpt: as §1, §2, §3
Substance,% displacement of [^125I] Tyr^11-SRIF-14 (hSSTR-4; at 1 nM (in brackets)),% displacement of [^125I] Tyr^11-SRIF-14 (hSSTR-4; at 10 nM),% displacement of [^125I] Tyr^11-SRIF-14 (SSTR5; at 1 nM (in brackets)),% displacement of [^125I] Tyr^11-SRIF-14 (SSTR5; at 10 nM),% displacement of [^125I] Tyr^11-SRIF-14 (SSTR1; at 1 nM (in brackets)) [%],% displacement of [^125I] Tyr^11-SRIF-14 (SSTR1; at 10 nM) [%],% displacement of [^125I] Tyr^11-SRIF-14 (SSTR3; at 1 nM (in brackets)) [%],% displacement of [^125I] Tyr^11-SRIF-14 (SSTR3; at 10 nM) [%],% displacement of [^125I] Tyr^11-SRIF-14 (SSTR2; at 1 nM (in brackets)),% displacement of [^125I] Tyr^11-SRIF-14 (SSTR2; at 10 nM),affinity and selectivity to SSTR3 (in words) (SSTR3),affinity to SSTR3 (SSTR3) [nM]
DOTA-D-Phe^1-Glu^2-Orn^3-Cys^4-Phe^5-D-Trp^6-Lys^7-Thr^8-Phe^9-NTEG^10-NH2 (cyclo 4-10) ({DOTA}-[dF]E[Orn]CF[dW]KTF[N(2-mercaptoethyl)Gly]-NH2; disulfide 4-10; SMILES C[C@@H](O)[C@@H]1NC(=O)[C@H](CCCCN)NC(=O)[C@@H](Cc2c[nH]c3ccccc23)NC(=O)[C@H](Cc2ccccc2)NC(=O)[C@@H](NC(=O)[C@H](CCCN)NC(=O)[C@H](CCC(=O)O)NC(=O)[C@@H](Cc2ccccc2)NC(=O)CN2CCN(CC(=O)O)CCN(CC(=O)O)CCN(CC(=O)O)CC2)CSSCCN(CC(N)=O)C(=O)[C@H](Cc2ccccc2)NC1=O) [SEQ ID NO: 23],0(0) %,0(0) %,0(0) %,0(0) %,4,6,19,56,0(0) %,0(0) %,,
DOTA-D-Phe^1-Orn^2-Cys^3-Phe^4-D-Trp^5-Lys^6-Thr^7-Phe^8-NTEG^9-NH2 cyclo 3-9 [SEQ ID NO: 21],9(9) %,9(9) %,0(0) %,0(0) %,23,22,59,93,0%,2%,did not interfere with the affinity and selectivity to SSTR3,
DOTA-Gly^1-D-Phe^2-Arg^3-Cys^4-Phe^5-D-Trp^6-Lys^7-Thr^8-Phe^9-NTEG^10-NH2 (cyclo 4-10) ({DOTA}-G[dF]RCF[dW]KTF[N(2-mercaptoethyl)Gly]-NH2; disulfide 4-10; SMILES C[C@@H](O)[C@@H]1NC(=O)[C@H](CCCCN)NC(=O)[C@@H](Cc2c[nH]c3ccccc23)NC(=O)[C@H](Cc2ccccc2)NC(=O)[C@@H](NC(=O)[C@H](CCCNC(=N)N)NC(=O)[C@@H](Cc2ccccc2)NC(=O)CNC(=O)CN2CCN(CC(=O)O)CCN(CC(=O)O)CCN(CC(=O)O)CC2)CSSCCN(CC(N)=O)C(=O)[C@H](Cc2ccccc2)NC1=O) [SEQ ID NO: 11],0(0) %,0(0) %,0(0) %,0(0) %,2,19,47,88,0(0) %,0(0) %,,
"DOTA-Lys^1-D-Phe^2-Arg^3-Gly^4-Asp^5-Glu^6-GABA-D-Phe^7-Lys^8-Cys^9-Phe^10-D-Trp^11-Lys^12- Thr^13-Phe^14-NTEG^15-NH2 (cyclo 1-6; cyclo 9-15) ({DOTA}-K[dF]RGDE[GABA][dF]KCF[dW]KTF[N(2-mercaptoethyl)Gly]-NH2; lactam 1-6; disulfide 10-16; not fully specified; printed as DOTA-Lys1-D-Phe2-Arg3-Gly4-Asp5-Glu6-GABA-D-Phe7-Lys8-Cys9-Phe10-D-Trp11-Lys12- Thr13-Phe14-NTEG15-NH2 (cyclo 1-6, cyclo 9-15); numbers in words are those of the source; also: cyclo 1-6 listed as disulfide between Lys1 and Glu6) [SEQ ID NO: 17]",7%,5%,15%,13%,9,15,68,91,11%,8%,,
DOTA-Phe^1-D-Phe^2-Arg^3-(Cys^4-Phe^5-D-Trp^6-Lys^7-Thr^8-Phe^9-NTEG^10)-NH2 (cyclo 4-10) ({DOTA}-F[dF]RCF[dW]KTF[N(2-mercaptoethyl)Gly]-NH2; disulfide 4-10; SMILES C[C@@H](O)[C@@H]1NC(=O)[C@H](CCCCN)NC(=O)[C@@H](Cc2c[nH]c3ccccc23)NC(=O)[C@H](Cc2ccccc2)NC(=O)[C@@H](NC(=O)[C@H](CCCNC(=N)N)NC(=O)[C@@H](Cc2ccccc2)NC(=O)[C@H](Cc2ccccc2)NC(=O)CN2CCN(CC(=O)O)CCN(CC(=O)O)CCN(CC(=O)O)CC2)CSSCCN(CC(N)=O)C(=O)[C@H](Cc2ccccc2)NC1=O) [SEQ ID NO: 20],0(0) %,0(0) %,0(0) %,0(0) %,8,14,66,95,0%,2%,,
H-Arg^1-Gly^2-Asp^3-D-Phe^4-Arg^5-Cys^6-Phe^7-D-Trp^8-Lys^9-Thr^10-Phe^11 -NTEG^12-NH^2 (cyclo 6-12) (H-RGD[dF]RCF[dW]KTF[N(2-mercaptoethyl)Gly]-NH2; disulfide 6-12; SMILES C[C@@H](O)[C@@H]1NC(=O)[C@H](CCCCN)NC(=O)[C@@H](Cc2c[nH]c3ccccc23)NC(=O)[C@H](Cc2ccccc2)NC(=O)[C@@H](NC(=O)[C@H](CCCNC(=N)N)NC(=O)[C@@H](Cc2ccccc2)NC(=O)[C@H](CC(=O)O)NC(=O)CNC(=O)[C@@H](N)CCCNC(=N)N)CSSCCN(CC(N)=O)C(=O)[C@H](Cc2ccccc2)NC1=O) [SEQ ID NO: 13],0(0) %,0(0) %,0%,4%,9,15,36,78,0%,12%,did not interfere with the affinity and selectivity of SEQ ID NO: 3 to SSTR3,
H-Phe^1-Arg^2-Cys^3-Phe^4-D-Trp^5-Lys^6-Thr^7-Tyr^8-NTEG^9-NH2 (cyclo 3-9) (H-XRCF[dW]KTY[N(2-mercaptoethyl)Gly]-NH2; disulfide 3-9; not fully specified (residue 1); printed as H-Phe1-Arg2-Cys3-Phe4-D-Trp5-Lys6-Thr7-Tyr8-NTEG9-NH2 (cyclo 3-9)) [SEQ ID NO: 26],0(0) %,0(0) %,0%,1%,0,24,53,86,0(0) %,0(0) %,,
Niraparib-CO(CH2)3CO-D-Phe^1-Arg^2-Cys^3-Phe^4-D-Trp^5-Lys^6-Thr^7-Phe^8-NTEG^9-NH2 cyclo 3-9 [SEQ ID NO: 28],0(0) %,0(0) %,0(0) %,0(0) %,12,23,28,79,0(0) %,0(0) %,the same selectivity to SSTR3 as SEQ ID NO: 1,≤ 10
